Test results reported in article PMC8496732, “RAB33B recruits the ATG16L1 complex to the phagophore via a noncanonical RAB binding protein” (Autophagy, 2020).
Changes are numbered by the printed parent chain. Names may count otherwise.

B1: ATG16L1(141–265) wild type, expressed separately (domain or fragment, UniProt Q8C0J2 141-265, looked up)
chain: LETNCLDLRTKLQDLEVANQTLKDEYDALQITFTALEEKLRKTTEENQELVTRWMAEKAQEANRLNAENEKDSRRRQARLQKELAEAAKEPLPVEQDDDIEVIVDETSDHTEETSPVRAVSRAAT
notes: pOPIN vector with GST tag; also called WT
B2: ATG16L1(141–265) N209A (domain or fragment, UniProt Q8C0J2 141-265, looked up)
chain: B1 chain with N69A
B3: ATG16L1(141–265) N206A (domain or fragment, UniProt Q8C0J2 141-265, looked up)
chain: B1 chain with N66A
B4: ATG16L1(141–265) N206A,N209A (domain or fragment, UniProt Q8C0J2 141-265, looked up)
chain: B1 chain with N66A, N69A

What was measured:
Details in all cases: both partners purified
[1] = target: T1, RAB33B I66A, 6xHis, labeled with Tide Fluor 3 (human, UniProt Q9H082 1-229, I66A, labeled with Tide Fluor 3 (TF3) maleimide); experiment: MST; TF3-labeled RAB33B at 10 μM, GppNHp-bound; unlabeled ATG16L1(141–265) titrated from 400 μM to 12 nM; 20 mM HEPES pH 7.2, 25 mM NaCl, 2 mM DTE, 2 mM MgCl2, 0.05% Tween 20, 10 µM GppNHp
T1 construct: RAB33B, human, I66A; also called I66A^GppNHp
T1 sequence (looked up): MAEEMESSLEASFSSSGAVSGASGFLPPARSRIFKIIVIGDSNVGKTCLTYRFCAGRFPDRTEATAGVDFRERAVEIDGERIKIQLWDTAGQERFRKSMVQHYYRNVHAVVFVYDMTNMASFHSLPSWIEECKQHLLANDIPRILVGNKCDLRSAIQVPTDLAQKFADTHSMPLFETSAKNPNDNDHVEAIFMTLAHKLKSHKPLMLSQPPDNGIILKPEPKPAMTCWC

[2] = target: T2, RAB33B wild type, 6xHis, labeled with Tide Fluor 3 (human, UniProt Q9H082 1-229, labeled with Tide Fluor 3 (TF3) maleimide); experiment: as above
T2 construct: RAB33B, human; Loaded with GppNHp or GDP by nucleotide exchange; The crystal construct is 30–218; also called WT^GppNHp; WT^GDP
T2 sequence (looked up): T1 sequence (looked up) with A66I

[3] = target: T3, RAB33B K35A, 6xHis, labeled with Tide Fluor 3 (human, UniProt Q9H082 1-229, K35A, labeled with Tide Fluor 3 (TF3) maleimide); experiment: as above
T3 construct: RAB33B, human, K35A; also called K35A^GppNHp
T3 sequence (looked up): T1 sequence (looked up) with K35A, A66I

[4] = target: T4, RAB33B F95A, 6xHis, labeled with Tide Fluor 3 (human, UniProt Q9H082 1-229, F95A, labeled with Tide Fluor 3 (TF3) maleimide); experiment: as above
T4 construct: RAB33B, human, F95A; also called F95A^GppNHp
T4 sequence (looked up): T1 sequence (looked up) with A66I, F95A

[5] = target: T2, RAB33B wild type, 6xHis, labeled with …; experiment: MST; TF3-labeled RAB33B at 10 μM, GDP-bound; unlabeled ATG16L1(141–265) titrated from 400 μM to 12 nM; 20 mM HEPES pH 7.2, 25 mM NaCl, 2 mM DTE, 2 mM MgCl2, 0.05% Tween 20, 10 µM GDP

Binder	Kd [1] [µM]	Kd [2] [µM]	Kd [3] [µM]	Kd [4] [µM]	Kd [5] [µM]
B1	25.9	0.095	> 100	17.1	0.213
B2		0.884			
B3		3.38			
B4		24.1			
